Legend:
[1] = target: TLM-core protein (2xTLM-HA-HBV core with strep-tag III in the spike tip), assembled to TLM-carrier capsid (hepatitis B virus) (UniProt P03146)
[2] = target: streptavidin-Ova fusion protein (streptavidin, hexa-his tag, ovalbumin); assay: non-denaturing SDS-PAGE; purified and refolded protein on SDS-PAGE under non-denaturing against denaturing conditions
[3] = target: TLM-core protein (2xTLM-HA-HBV core with strep-tag III in the spike tip), assembled to TLM-carrier capsid (hepatitis B virus) (UniProt P03146); assay: SPR; Biacore T200; TLM-carrier capsid (TLM-core protein) immobilised on a CM5 chip; streptavidin injected at five concentrations (4.7-75.7 nM) or streptavidin-Ova at six concentrations (1.9-62.5 nM); fitted with the heterogeneous ligand and the bivalent analyte models (1:1 model fitted poorly)
[4] = target: recombinant hexa-his-streptavidin (UniProt P22629); assay: non-denaturing SDS-PAGE; purified and refolded protein on SDS-PAGE under non-denaturing against denaturing conditions

Chain of UniProt P03146 (P03146 whole entry, the tested form may be a part): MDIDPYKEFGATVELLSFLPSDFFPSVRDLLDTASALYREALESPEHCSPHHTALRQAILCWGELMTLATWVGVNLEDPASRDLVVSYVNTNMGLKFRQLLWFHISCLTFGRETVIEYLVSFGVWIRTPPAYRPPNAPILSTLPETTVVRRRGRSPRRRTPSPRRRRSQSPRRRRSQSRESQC

| Substance | IFN-γ secreted (ELISA, 72 h) by OT-I CD8+ T-cells co-cultured with BMDCs: Ova-loaded TLM-carrier capsid compared with free streptavidin-Ova [1] | stoichiometry N [2] | KD2 (heterogeneous ligand model, set 2, strong interaction) [3] | Ka1 (on-rate, bivalent analyte model, step 1) [3] | Ka2 (on-rate, bivalent analyte model, step 2) [3] | Ka2 (on-rate, heterogeneous ligand model, set 2, strong interaction) [3] | Kd1 (off-rate, bivalent analyte model, step 1) [3] | Kd2 (off-rate, bivalent analyte model, step 2) [3] | Kd2 (off-rate, heterogeneous ligand model, set 2, strong interaction) [3] | dissociation half-life (t 1/2) of the strong binding interaction [3] | stoichiometry N [4] |
| --- | --- | --- | --- | --- | --- | --- | --- | --- | --- | --- | --- |
| streptavidin-Ova fusion protein (streptavidin, hexa-his tag, ovalbumin) | > 10 fold | 4 | 1.97 nM | 94200 M^- s^−1 | 0.000428 RU^- s^- | 356000 M^- s^−1 | 0.0104 s⁻¹ | 0.000823 s⁻¹ | 0.0007 s⁻¹ | 16.5 min | – |
| recombinant hexa-his-streptavidin (from UniProt P22629 25-183) (natural protein) | – | – | 4.74 nM | 146000 M^- s^−1 | 8.16e-05 RU^- s^- | 397000 M^- s^−1 | 0.0213 s⁻¹ | 0.00126 s⁻¹ | 0.00188 s⁻¹ | – | 4 |

From publication PMC5575276
